{
  "source": "the supplement of paper PMC11246515",
  "test": "total protein half-life in vivo (active degradation + dilution); higher = more stable protein",
  "key": {"[1]": {"conditions": "E. coli NCM3722 delta-clpP delta-lon delta-hslV, growth: N-lim chemostat, doubling time 6 h"}, "[2]": {"conditions": "E. coli NCM3722 delta-hslV, growth: N-lim chemostat, doubling time 6 h"}, "[3]": {"conditions": "E. coli NCM3722 delta-lon, growth: N-lim chemostat, doubling time 6 h"}, "[4]": {"conditions": "E. coli NCM3722 delta-smpB, growth: N-lim chemostat, doubling time 6 h"}, "[5]": {"conditions": "wild type E. coli NCM3722, growth: C-lim chemostat, doubling time 3 h"}, "[6]": {"conditions": "wild type E. coli NCM3722, growth: C-lim chemostat, doubling time 6 h"}, "[7]": {"conditions": "wild type E. coli NCM3722, growth: C-lim chemostat, doubling time 12 h"}, "[8]": {"conditions": "wild type E. coli NCM3722, growth: N-lim chemostat, doubling time 6 h"}, "[9]": {"conditions": "wild type E. coli NCM3722, growth: N-lim chemostat, doubling time 12 h"}, "[10]": {"conditions": "wild type E. coli NCM3722, growth: P-lim chemostat, doubling time 6 h"}, "[11]": {"conditions": "E. coli NCM3722 delta-clpP, growth: N-lim chemostat, doubling time 6 h"}, "[12]": {"conditions": "wild type E. coli NCM3722, growth: P-lim chemostat, doubling time 12 h"}},
  "note": "± gives the standard deviation of the averaged measurements.",
  "data": [
    {"sequence": "MPKLVTWMNNQRVGELTKLANGAHTFKYAPEWLASRYARPLSLSLPLQRGNITSDAVFNFFDNLLPDSPIVRDRIVKRYHAKSRQPFDLLSEIGRDSVGAVTLIPEDETVTHPIMAWEKLTEARLEEVLTAYKADIPLGMIREENDFRISVAGAQEKTALLRIGNDWCIPKGITPTTHIIKLPIGEIRQPNATLDLSQSVDNEYYCLLLAKELGLNVPDAEIIKAGNVRALAVERFDRRWNAERTVLLRLPQEDMCQTFGLPSSVKYESDGGPGIARIMAFLMGSSEALKDRYDFMKFQVFQWLIGATDGHAKNFSVFIQAGGSYRLTPFYDIISAFPVLGGTGIHISDLKLAMGLNASKGKKTAIDKIYPRHFLATAKVLRFPEVQMHEILSDFARMIPAALDNVKTSLPTDFPENVVTAVESNVLRLHGRLSREYGSK", "values": [
      {"measurement": "total protein half-life in vivo", "setting": "[1]", "result": "5.44 ± 0.06", "unit": "h"},
      {"measurement": "total protein half-life in vivo", "setting": "[2]", "result": "5.63 ± 0.078", "unit": "h"},
      {"measurement": "total protein half-life in vivo", "setting": "[3]", "result": "5.73 ± 0.54", "unit": "h"},
      {"measurement": "total protein half-life in vivo", "setting": "[4]", "result": "5.22 ± 0.39", "unit": "h"},
      {"measurement": "total protein half-life in vivo", "setting": "[5]", "result": "3 ± 0.061", "unit": "h"},
      {"measurement": "total protein half-life in vivo", "setting": "[6]", "result": "5.65 ± 0.24", "unit": "h"},
      {"measurement": "total protein half-life in vivo", "setting": "[7]", "result": "10.8 ± 0.14", "unit": "h"},
      {"measurement": "total protein half-life in vivo", "setting": "[8]", "result": "5.21 ± 0.73", "unit": "h"},
      {"measurement": "total protein half-life in vivo", "setting": "[9]", "result": "9.66 ± 1.8", "unit": "h"},
      {"measurement": "total protein half-life in vivo", "setting": "[10]", "result": "6.37 ± 0.53", "unit": "h"}
    ]},
    {"sequence": "MPKRTDIKSILILGAGPIVIGQACEFDYSGAQACKALREEGYRVILVNSNPATIMTDPEMADATYIEPIHWEVVRKIIEKERPDAVLPTMGGQTALNCALELERQGVLEEFGVTMIGATADAIDKAEDRRRFDVAMKKIGLETARSGIAHTMEEALAVAADVGFPCIIRPSFTMGGSGGGIAYNREEFEEICARGLDLSPTKELLIDESLIGWKEYEMEVVRDKNDNCIIVCSIENFDAMGIHTGDSITVAPAQTLTDKEYQIMRNASMAVLREIGVETGGSNVQFAVNPKNGRLIVIEMNPRVSRSSALASKATGFPIAKVAAKLAVGYTLDELMNDITGGRTPASFEPSIDYVVTKIPRFNFEKFAGANDRLTTQMKSVGEVMAIGRTQQESLQKALRGLEVGATGFDPKVSLDDPEALTKIRRELKDAGADRIWYIADAFRAGLSVDGVFNLTNIDRWFLVQIEELVRLEEKVAEVGITGLNADFLRQLKRKGFADARLAKLAGVREAEIRKLRDQYDLHPVYKRVDTCAAEFATDTAYMYSTYEEECEANPSTDREKIMVLGGGPNRIGQGIEFDYCCVHASLALREDGYETIMVNCNPETVSTDYDTSDRLYFEPVTLEDVLEIVRIEKPKGVIVQYGGQTPLKLARALEAAGVPVIGTSPDAIDRAEDRERFQHAVERLKLKQPANATVTAIEMAVEKAKEIGYPLVVRPSYVLGGRAMEIVYDEADLRRYFQTAVSVSNDAPVLLDHFLDDAVEVDVDAICDGEMVLIGGIMEHIEQAGVHSGDSACSLPAYTLSQEIQDVMRQQVQKLAFELQVRGLMNVQFAVKNNEVYLIEVNPRAARTVPFVSKATGVPLAKVAARVMAGKSLAEQGVTKEVIPPYYSVKEVVLPFNKFPGVDPLLGPEMRSTGEVMGVGRTFAEAFAKAQLGSNSTMKKHGRALLSVREGDKERVVDLAAKLLKQGFELDATHGTAIVLGEAGINPRLVNKVHEGRPHIQDRIKNGEYTYIINTTSGRRAIEDSRVIRRSALQYKVHYDTTLNGGFATAMALNADATEKVISVQEMHAQIK", "values": [
      {"measurement": "total protein half-life in vivo", "setting": "[1]", "result": "5.02 ± 0.092", "unit": "h"},
      {"measurement": "total protein half-life in vivo", "setting": "[11]", "result": "4.45 ± 0.4", "unit": "h"},
      {"measurement": "total protein half-life in vivo", "setting": "[2]", "result": "4.581 ± 0.016", "unit": "h"},
      {"measurement": "total protein half-life in vivo", "setting": "[3]", "result": "5 ± 0.33", "unit": "h"},
      {"measurement": "total protein half-life in vivo", "setting": "[4]", "result": "4.81 ± 0.32", "unit": "h"},
      {"measurement": "total protein half-life in vivo", "setting": "[5]", "result": "3.11 ± 0.25", "unit": "h"},
      {"measurement": "total protein half-life in vivo", "setting": "[6]", "result": "5.75 ± 0.28", "unit": "h"},
      {"measurement": "total protein half-life in vivo", "setting": "[7]", "result": "10.6 ± 0.13", "unit": "h"},
      {"measurement": "total protein half-life in vivo", "setting": "[8]", "result": "4.65 ± 0.3", "unit": "h"},
      {"measurement": "total protein half-life in vivo", "setting": "[9]", "result": "8.22 ± 0.41", "unit": "h"},
      {"measurement": "total protein half-life in vivo", "setting": "[10]", "result": "6.2 ± 0.28", "unit": "h"},
      {"measurement": "total protein half-life in vivo", "setting": "[12]", "result": "12.6 ± 0.28", "unit": "h"}
    ]},
    {"sequence": "MPLPDFHVSEPFTLGIELEMQVVNPPGYDLSQDSSMLIDAVKNKITAGEVKHDITESMLELATDVCRDINQAAGQFSAMQKVVLQAATDHHLEICGGGTHPFQKWQRQEVCDNERYQRTLENFGYLIQQATVFGQHVHVGCASGDDAIYLLHGLSRFVPHFIALSAASPYMQGTDTRFASSRPNIFSAFPDNGPMPWVSNWQQFEALFRCLSYTTMIDSIKDLHWDIRPSPHFGTVEVRVMDTPLTLSHAVNMAGLIQATAHWLLTERPFKHQEKDYLLYKFNRFQACRYGLEGVITDPHTGDRRPLTEDTLRLLEKIAPSAHKIGASSAIEALHRQVVSGLNEAQLMRDFVADGGSLIGLVKKHCEIWAGD", "values": [
      {"measurement": "total protein half-life in vivo", "setting": "[1]", "result": "4.72 ± 0.45", "unit": "h"},
      {"measurement": "total protein half-life in vivo", "setting": "[11]", "result": "4.3 ± 0.47", "unit": "h"},
      {"measurement": "total protein half-life in vivo", "setting": "[2]", "result": "4.35 ± 0.24", "unit": "h"},
      {"measurement": "total protein half-life in vivo", "setting": "[3]", "result": "4.85 ± 0.29", "unit": "h"},
      {"measurement": "total protein half-life in vivo", "setting": "[4]", "result": 4.73, "unit": "h"},
      {"measurement": "total protein half-life in vivo", "setting": "[7]", "result": "9.5 ± 0.29", "unit": "h"},
      {"measurement": "total protein half-life in vivo", "setting": "[8]", "result": 4.59, "unit": "h"},
      {"measurement": "total protein half-life in vivo", "setting": "[9]", "result": 9.74, "unit": "h"},
      {"measurement": "total protein half-life in vivo", "setting": "[10]", "result": "6.17 ± 1", "unit": "h"},
      {"measurement": "total protein half-life in vivo", "setting": "[12]", "result": "11.6 ± 0.85", "unit": "h"}
    ]},
    {"sequence": "MPNITWCDLPEDVSLWPGLPLSLSGDEVMPLDYHAGRSGWLLYGRGLDKQRLTQYQSKLGAAMVIVAAWCVEDYQVIRLAGSLTARATRLAHEAQLDVAPLGKIPHLRTPGLLVMDMDSTAIQIECIDEIAKLAGTGEMVAEVTERAMRGELDFTASLRSRVATLKGADANILQQVRENLPLMPGLTQLVLKLETLGWKVAIASGGFTFFAEYLRDKLRLTAVVANELEIMDGKFTGNVIGDIVDAQYKAKTLTRLAQEYEIPLAQTVAIGDGANDLPMIKAAGLGIAYHAKPKVNEKAEVTIRHADLMGVFCILSGSLNQK [P0AGB0]", "values": [
      {"measurement": "total protein half-life in vivo", "setting": "[1]", "result": "5.32 ± 0.097", "unit": "h"},
      {"measurement": "total protein half-life in vivo", "setting": "[11]", "result": "5.09 ± 0.32", "unit": "h"},
      {"measurement": "total protein half-life in vivo", "setting": "[2]", "result": "5.09 ± 0.31", "unit": "h"},
      {"measurement": "total protein half-life in vivo", "setting": "[3]", "result": "5.43 ± 0.31", "unit": "h"},
      {"measurement": "total protein half-life in vivo", "setting": "[4]", "result": "5.08 ± 0.26", "unit": "h"},
      {"measurement": "total protein half-life in vivo", "setting": "[5]", "result": "3.01 ± 0.1", "unit": "h"},
      {"measurement": "total protein half-life in vivo", "setting": "[6]", "result": "5.07 ± 0.26", "unit": "h"},
      {"measurement": "total protein half-life in vivo", "setting": "[7]", "result": "10.3 ± 0.85", "unit": "h"},
      {"measurement": "total protein half-life in vivo", "setting": "[8]", "result": "4.819 ± 0.032", "unit": "h"},
      {"measurement": "total protein half-life in vivo", "setting": "[9]", "result": "8.79 ± 0.6", "unit": "h"},
      {"measurement": "total protein half-life in vivo", "setting": "[10]", "result": "5.83 ± 0.23", "unit": "h"},
      {"measurement": "total protein half-life in vivo", "setting": "[12]", "result": "11.5 ± 0.32", "unit": "h"}
    ]},
    {"sequence": "MPNIVLSRIDERLIHGQVGVQWVGFAGANLVLVANDEVAEDPVQQNLMEMVLAEGIAVRFWTLQKVIDNIHRAADRQKILLVCKTPADFLTLVKGGVPVNRINVGNMHYANGKQQIAKTVSVDAGDIAAFNDLKTAGVECFVQGVPTEPAVDLFKLL", "values": [
      {"measurement": "total protein half-life in vivo", "setting": "[5]", "result": 3.26, "unit": "h"},
      {"measurement": "total protein half-life in vivo", "setting": "[6]", "result": "5.07 ± 0.6", "unit": "h"},
      {"measurement": "total protein half-life in vivo", "setting": "[7]", "result": 8.17, "unit": "h"}
    ]}
  ]
}
